Results reported in patent publication US20120244164A1 (published 2012).
Changes are numbered by the printed parent chain. Numbers in names are those of the source.

Legend:
[1] = target: T1, recombinant human c-Met/Fc chimera (R&D systems) (human); assay: HGF/c-MET competition Alphascreen: 100 pM biotinylated hHGF, 100 pM c-MET/Fc
T1 construct: R&D Systems 358-MT/CF, expressed in NS0 cells; also called hc-Met/Fc; hu c-Met/Fc
Experimental: (§1) To this mixture the anti-human Fc conjugated acceptor beads and c-MET/Fc (100 pM final concentration) were added and incubated for 2 hours at RT. Next, streptavidin donor beads were added and the mixture was incubated for 1 additional hour. Fluorescence was measured by reading plates on the EnVision Multilabel Plate Reader using an excitation wavelength of 680 nm and an emission wavelength of 520 nm.

[2] = target: T1, recombinant human c-Met/Fc chimera (R&D …); assay: HGF/c-MET competition Alphascreen; reference 5D5 Fab v2
Experimental: as §1

[3] = target: T2, Human c-Met (human, UniProt P08581 25-1390); assay: cell-based or functional assay
T2 sequence (P08581 25-1390 limits assumed): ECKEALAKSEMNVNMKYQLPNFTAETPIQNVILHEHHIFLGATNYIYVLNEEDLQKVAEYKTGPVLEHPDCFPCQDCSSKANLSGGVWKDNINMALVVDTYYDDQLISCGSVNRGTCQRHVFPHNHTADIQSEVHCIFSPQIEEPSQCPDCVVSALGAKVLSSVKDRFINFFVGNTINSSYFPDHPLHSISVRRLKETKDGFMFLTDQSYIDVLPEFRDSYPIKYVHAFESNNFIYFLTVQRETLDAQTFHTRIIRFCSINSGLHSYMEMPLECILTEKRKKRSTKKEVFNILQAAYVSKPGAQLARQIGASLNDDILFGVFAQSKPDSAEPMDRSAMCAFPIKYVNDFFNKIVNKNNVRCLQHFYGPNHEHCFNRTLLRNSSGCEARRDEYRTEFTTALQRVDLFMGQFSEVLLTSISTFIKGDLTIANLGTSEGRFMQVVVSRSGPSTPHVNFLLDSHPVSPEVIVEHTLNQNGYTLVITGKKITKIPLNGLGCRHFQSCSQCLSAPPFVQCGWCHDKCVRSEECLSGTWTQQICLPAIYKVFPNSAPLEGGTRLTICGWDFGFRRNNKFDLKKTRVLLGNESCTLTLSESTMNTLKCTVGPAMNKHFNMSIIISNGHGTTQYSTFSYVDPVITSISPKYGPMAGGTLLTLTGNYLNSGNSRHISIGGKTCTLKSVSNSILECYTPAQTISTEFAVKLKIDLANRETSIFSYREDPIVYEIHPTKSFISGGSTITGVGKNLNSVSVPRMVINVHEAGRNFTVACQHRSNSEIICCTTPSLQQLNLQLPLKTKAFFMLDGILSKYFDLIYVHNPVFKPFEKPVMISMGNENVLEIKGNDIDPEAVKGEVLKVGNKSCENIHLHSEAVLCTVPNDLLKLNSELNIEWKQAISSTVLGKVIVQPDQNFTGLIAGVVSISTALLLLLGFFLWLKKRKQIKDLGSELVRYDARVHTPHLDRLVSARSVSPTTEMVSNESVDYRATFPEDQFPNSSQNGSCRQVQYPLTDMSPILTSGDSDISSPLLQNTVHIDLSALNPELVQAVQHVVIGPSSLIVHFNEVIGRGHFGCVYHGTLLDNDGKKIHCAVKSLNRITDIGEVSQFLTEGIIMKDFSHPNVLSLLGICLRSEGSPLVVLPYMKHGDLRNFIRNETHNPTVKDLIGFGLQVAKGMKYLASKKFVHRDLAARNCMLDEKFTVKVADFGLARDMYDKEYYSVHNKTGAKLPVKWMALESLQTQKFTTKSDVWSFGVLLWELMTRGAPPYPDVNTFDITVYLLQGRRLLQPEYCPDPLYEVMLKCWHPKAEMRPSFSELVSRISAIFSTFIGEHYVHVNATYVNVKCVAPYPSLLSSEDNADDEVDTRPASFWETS

[4] = target: T2, Human c-Met; assay: cell-based or functional assay; remark: listed apart in the source
[5] = target: T1, recombinant human c-Met/Fc chimera (R&D …); assay: HGF-competition Alphascreen: biotinylated hHGF, human c-Met/Fc
[6] = target: T2, Human c-Met; assay: cell-based or functional assay; remark: listed apart in the source
[7] = target: T3, cynomolgus c-Met (cynomolgus monkey, UniProt A0M8R7 25-1381 (Papio anubis entry)); assay: competition FACS: 0.5 nM biotinylated HGF on BAF3 cells with cynomolgus c-Met
T3 construct: also called cynomolgus monkey c-Met; cyno c-Met
T3 sequence (A0M8R7 25-1381 S170N/I621T limits assumed): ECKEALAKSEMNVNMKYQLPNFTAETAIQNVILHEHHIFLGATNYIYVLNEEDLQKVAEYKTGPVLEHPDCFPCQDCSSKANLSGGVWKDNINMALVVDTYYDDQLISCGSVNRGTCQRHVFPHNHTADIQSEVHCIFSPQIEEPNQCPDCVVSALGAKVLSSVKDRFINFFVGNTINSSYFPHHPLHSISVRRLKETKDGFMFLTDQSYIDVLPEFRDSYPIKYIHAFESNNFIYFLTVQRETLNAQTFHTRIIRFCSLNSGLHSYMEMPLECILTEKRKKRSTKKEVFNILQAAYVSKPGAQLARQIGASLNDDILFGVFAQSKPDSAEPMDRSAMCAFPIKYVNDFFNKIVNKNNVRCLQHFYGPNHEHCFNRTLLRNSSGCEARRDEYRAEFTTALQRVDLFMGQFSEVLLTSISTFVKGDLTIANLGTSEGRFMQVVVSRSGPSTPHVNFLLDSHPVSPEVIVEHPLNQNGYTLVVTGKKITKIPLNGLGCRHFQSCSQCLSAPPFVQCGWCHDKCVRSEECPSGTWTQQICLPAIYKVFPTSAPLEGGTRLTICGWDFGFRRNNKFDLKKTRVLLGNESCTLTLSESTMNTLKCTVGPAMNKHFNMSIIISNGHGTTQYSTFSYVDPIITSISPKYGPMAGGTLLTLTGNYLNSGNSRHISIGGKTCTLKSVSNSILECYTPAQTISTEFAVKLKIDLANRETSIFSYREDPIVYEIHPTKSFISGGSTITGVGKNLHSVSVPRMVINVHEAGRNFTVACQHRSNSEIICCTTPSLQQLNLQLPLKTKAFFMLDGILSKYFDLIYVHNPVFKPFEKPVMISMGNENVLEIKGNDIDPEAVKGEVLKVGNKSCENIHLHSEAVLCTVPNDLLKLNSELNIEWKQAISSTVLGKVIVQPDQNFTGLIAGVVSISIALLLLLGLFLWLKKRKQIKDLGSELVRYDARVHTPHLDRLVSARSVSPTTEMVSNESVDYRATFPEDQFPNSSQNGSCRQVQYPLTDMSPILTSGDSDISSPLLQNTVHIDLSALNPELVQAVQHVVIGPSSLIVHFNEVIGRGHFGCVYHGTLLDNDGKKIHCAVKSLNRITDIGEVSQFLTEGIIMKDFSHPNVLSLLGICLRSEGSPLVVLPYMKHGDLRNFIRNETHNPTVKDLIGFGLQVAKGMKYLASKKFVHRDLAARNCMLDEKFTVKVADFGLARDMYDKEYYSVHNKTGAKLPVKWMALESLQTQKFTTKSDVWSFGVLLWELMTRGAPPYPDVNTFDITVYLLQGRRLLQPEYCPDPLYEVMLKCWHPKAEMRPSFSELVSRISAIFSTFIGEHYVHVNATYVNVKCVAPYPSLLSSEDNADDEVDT
Experimental: Cells were analyzed on a FACSarray flow cytometer as described in earlier examples.

[8] = target: T2, Human c-Met; assay: cell-based or functional assay; remark: listed apart in the source
[9] = target: T2, Human c-Met; assay: cell-based or functional assay; remark: listed apart in the source
[10] = target: T1, recombinant human c-Met/Fc chimera (R&D …); assay: HGF-competition Alphascreen, EXP 1
[11] = target: T1, recombinant human c-Met/Fc chimera (R&D …); assay: HGF-competition Alphascreen, EXP 1, second value
[12] = target: T1, recombinant human c-Met/Fc chimera (R&D …); assay: SPR (ProteOn), c-Met/Fc captured on anti-human IgG(Fc)
Experimental: (§2) Anti-human IgG(Fc) antibody (GE Healthcare) was immobilized on a ProteOn GLC Sensorchip (BioRad) via amine coupling on two ligand lanes at densities of approximately 5300 RU and 2700 RU. […] Regeneration of the surface was performed by an 80 seconds injection of 3M magnesium chloride at 25 μl/min (component of kit BR-1008-39, GE Healthcare).
The experiment was performed as described in Example 5.

[13] = target: T4, recombinant human CTLA4/Fc chimera (R&D Systems) (human, UniProt P16410 37-162, limits assumed); assay: SPR (ProteOn), CTLA4/Fc captured on anti-human IgG(Fc)
T4 construct: control protein; not shown: Fc part of a bought protein, not described
T4 sequence (P16410 37-162 limits assumed, change not shown): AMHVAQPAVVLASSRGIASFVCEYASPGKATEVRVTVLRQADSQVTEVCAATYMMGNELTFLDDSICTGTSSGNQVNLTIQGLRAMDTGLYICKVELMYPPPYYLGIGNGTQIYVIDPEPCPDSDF
Experimental: as §2

[14] = target: T1, recombinant human c-Met/Fc chimera (R&D …); assay: HGF-competition Alphascreen, EXP 2
[15] = target: T1, recombinant human c-Met/Fc chimera (R&D …); assay: HGF-competition Alphascreen
[16] = target: T1, recombinant human c-Met/Fc chimera (R&D …); assay: HGF-competition Alphascreen; remark: listed apart in the source
[17] = target: T2, Human c-Met; assay: cell-based or functional assay; remark: listed apart in the source
[18] = target: T1, recombinant human c-Met/Fc chimera (R&D …); assay: modified HGF-competition Alphascreen: 0.4 nM biotinylated HGF, 0.016 nM cMet/Fc

T1 sequence (chain, as listed by the source mutant limits assumed): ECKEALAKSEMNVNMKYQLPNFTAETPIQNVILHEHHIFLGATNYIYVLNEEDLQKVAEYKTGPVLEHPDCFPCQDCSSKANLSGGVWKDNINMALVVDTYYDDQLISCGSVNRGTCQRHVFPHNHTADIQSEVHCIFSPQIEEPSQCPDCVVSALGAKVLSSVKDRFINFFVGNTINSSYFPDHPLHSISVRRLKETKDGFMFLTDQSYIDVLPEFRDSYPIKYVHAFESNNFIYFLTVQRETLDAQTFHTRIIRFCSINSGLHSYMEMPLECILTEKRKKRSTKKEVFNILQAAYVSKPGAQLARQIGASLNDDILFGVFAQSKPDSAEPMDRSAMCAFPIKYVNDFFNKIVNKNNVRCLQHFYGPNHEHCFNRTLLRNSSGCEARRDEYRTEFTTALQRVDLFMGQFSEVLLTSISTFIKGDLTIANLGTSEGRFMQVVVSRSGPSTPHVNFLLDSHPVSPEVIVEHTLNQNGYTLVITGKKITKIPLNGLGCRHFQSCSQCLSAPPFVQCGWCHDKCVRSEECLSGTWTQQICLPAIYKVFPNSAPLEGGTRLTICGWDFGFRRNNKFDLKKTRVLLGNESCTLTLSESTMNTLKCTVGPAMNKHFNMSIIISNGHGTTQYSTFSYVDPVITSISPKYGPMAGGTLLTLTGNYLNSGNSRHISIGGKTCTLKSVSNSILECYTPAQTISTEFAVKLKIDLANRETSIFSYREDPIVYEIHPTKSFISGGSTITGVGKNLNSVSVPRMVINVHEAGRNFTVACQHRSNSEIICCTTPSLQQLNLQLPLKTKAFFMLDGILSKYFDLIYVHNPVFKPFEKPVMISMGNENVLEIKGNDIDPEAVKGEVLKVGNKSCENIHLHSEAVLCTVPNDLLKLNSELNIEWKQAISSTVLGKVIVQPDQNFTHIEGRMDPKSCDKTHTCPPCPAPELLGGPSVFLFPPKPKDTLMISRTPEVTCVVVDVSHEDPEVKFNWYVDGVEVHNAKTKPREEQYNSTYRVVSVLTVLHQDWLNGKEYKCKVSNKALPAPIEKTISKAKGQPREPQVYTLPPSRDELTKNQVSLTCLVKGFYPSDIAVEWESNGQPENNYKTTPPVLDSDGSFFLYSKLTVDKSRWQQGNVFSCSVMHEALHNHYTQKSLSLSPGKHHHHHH

B1: A007901219 (A00790105-9GS-Alb23) (bispecific antibody)
chain: DVQLVESGGGLVQPGGSLRLSCAASGFILDYYAIGWFRQAPGKEREGVLCIDASDDITYYADSVKGRFTISRDNSKNTVYLQMNSLRPEDTAVYYCATPIGLSSSCLLEYDYDYWGQGTLVTVSSGGGGSGGGSEVQLLESGGGLVQPGGSLRLSCAASGFTFRSFGMSWVRQAPGKGPEWVSSISGSGSDTLYADSVKGRFTISRDNSKNTLYLQMNSLRPEDTAVYYCTIGGSLSRSSQGTLVTVSS
notes: also called A007901219 (Alb23)
[1]
  IC50: 0.066 nM
[2]
  fold improved potency against 5D5 Fab v2: > 5 fold
[3]
  IC50, cMET phosphorylation assay, A549 cells, +HSA: 4.2 nM
  IC50, cMET phosphorylation assay, A549 cells, -HSA: 5.41 nM
[4]
  fold improved potency against 5D5 Fab v2, cMET phosphorylation assay: ~2 fold

B2: A007901222 (bispecific antibody)
chain: DVQLVESGGGLVQPGGSLRLSCAASGFILDYYAIGWFRQAPGKEREGVLCIDASDDITYYADSVKGRFTISRDNSKNTVYLQMNSLRPEDTAVYYCATPIGLSSSCLLEYDYDYWGQGTLVTVSSGGGGSGGGSEVQLLESGGGLVQPGGSLRLSCAASGFTFRSFGMSWVRQAPGKGPEWVSSISGSGSDTLYADSVKGRFTISRDNSKNTLYLQMNSLRPEDTAVYYCTIGGSLSRSSQGTLVTVSSA
notes: produced in P. pastoris X33; also called A00790105-9GS-Alb23-A
[5]
  IC50: 0.072 nM
[6]
  IC50, c-Met phosphorylation: 3.97 nM
  IC50, proliferation assay: 1.37 nM

B3: 04E09 (L49S) (SEQ ID NO: 23) tagged with 3xFlag-His6 (VHH)
VHH: EVQLVESGGGLVQPGGSLRLSCAASGFILDYYAIGWFRQAPGKEREGVSCIDASDDITYYADSVKGRFTISRDNAKNTVYLQMNSLKPEDTGVYYCATPIGLSSSCLLEYDYDYWGQGTLVTVSS
[7]
  % inhibition: 100%
  IC50: 0.61 nM
[8]
  IC50, HGF-dependent c-Met phosphorylation in A549 tumor cells: 3.1 nM

B4: A00790068 (VHH)
VHH: B3 VHH with S49L, A75S, K87R
notes: the entry as printed already holds the 3xFLAG-His6 tag; also called 04E09 (A74S, K83R, Q108L)
[9]
  IC50, c-Met phosphorylation, EXP 1: 1.96 nM
[10]
  IC50: 0.104 nM
[11]
  IC50: 0.072 nM

B5: 04E09 (C22A/C92S) (SEQ ID NO: 25) tagged with 3xFlag-His6 (VHH)
VHH: EVQLVESGGGLVQPGGSLRLSAAASGFILDYYAIGWFRQAPGKEREGVLCIDASDDITYYADSVKGRFTISRDNAKNTVYLQMNSLKPEDTGVYYSATPIGLSSSCLLEYDYDYWGQGTLVTVSSGAADYKDHDGDYKDHDIDYKDDDDKGAAHHHHHH
[7]
  % inhibition: 101%
  IC50: 0.49 nM
[12]
  Kd: 0.0234 nM
  koff: 7.9e-05 s⁻¹
  kon: 3.37e+06 M⁻¹ s⁻¹
[8]
  IC50, HGF-dependent c-Met phosphorylation in A549 tumor cells: 3.8 nM
[13]
  binding result: no binding

B6: 04E09 (C50S/C100bG) (SEQ ID NO: 24) tagged with 3xFlag-His6 (VHH)
VHH: B3 VHH with S49L, C50S, C106G
[7]
  % inhibition: 100%
  IC50: 20 nM
  factor of decrease in potency against parental SEQ ID NO: 7: ~35 fold
[12]
  Kd: 4.09 nM
  koff: 0.000788 s⁻¹
  kon: 193000 M⁻¹ s⁻¹
[13]
  binding result: no binding

B7: A00790069 (VHH)
VHH: B3 VHH with S49L, A75S, K87R, G92A
notes: the entry as printed already holds the 3xFLAG-His6 tag; also called 04E09 (A74S, K83R, G88A, Q108L)
[9]
  IC50, c-Met phosphorylation, EXP 1: 2.05 nM
  IC50, c-Met phosphorylation, EXP 2: 2.45 nM
[10]
  IC50: 0.107 nM
[11]
  IC50: 0.046 nM
[14]
  IC50: 0.071 nM

B8: A00790105 tagged with 3xFlag-His6 (VHH)
VHH: B3 VHH with E1D, S49L, A75S, K87R, G92A
notes: also called 04E09 (E1D, A74S, K83R, G88A, Q108L)
[9]
  IC50, c-Met phosphorylation, EXP 2: 2.33 nM
[14]
  IC50: 0.061 nM

B9: A00790067 (VHH)
VHH: VQLVESGGGLVQPGGSLRLSCAASGFILDYYAIGWFRQAPGKEREGVLCIDASDDITYYADSVKGRFTISRDNAKNTVYLQMNSLKPEDTGVYYCATPIGLSSSCLLEYDYDYWGQGTLVTVSS
notes: the entry as printed already holds the 3xFLAG-His6 tag; also called 04E09 (Q108L)
[9]
  IC50, c-Met phosphorylation, EXP 1: 2.21 nM
[10]
  IC50: 0.069 nM
[11]
  IC50: 0.069 nM

B10: A007900184 (33H10-3xFLAG-His6) (VHH)
VHH: EVQLVESGGGLVQAGGSLRLSCAASGFTFDDYAIGWFRQAPGEEREGVSSISSTYGLTYYADSVKGRFTISSSNAKNTVYLQMNNLKPEDTAVYYCAATPIERLGLDAYEYDYWGQGTLVTVSS
notes: the entry holds the tag; also called A007900184 (wt)
[15]
  IC50: 0.78 nM
[16]
  IC50: 0.61 nM
[17]
  IC50, cell-based cMet phosphorylation assay: 79 nM

B11: A007900752 (VHH)
VHH: B10 VHH with A14P, E43K, S72R, A75S, N85S
notes: 33H10 variant; the entry holds the 3xFLAG-His6 tag
[15]
  IC50: 31 nM

B12: A007900753 (VHH)
VHH: B10 VHH with A14P, E43K, S72R, S73D, A75S, N85S
notes: as for B11
[15]
  IC50: 100 nM

B13: A007901245 (VHH)
VHH: B10 VHH with A14P, S73D, A75S, N85S, K87R, E102G, R103L, L104I
notes: 33H10 variant, 3xFLAG-His6 tagged; the entry holds the tag; also called monovalent form of A007901255
[16]
  IC50: 0.092 nM
[18]
  IC50: 0.091 nM
[17]
  IC50, cell-based cMet phosphorylation assay: 5.41 nM
  IC50, cell-based proliferation assay, plate 1: 3.69 nM

B14: A007901246 (VHH)
VHH: B10 VHH with A14P, T28A, S73D, A75S, N85S, K87R, E102G, R103L, L104I
notes: 33H10 variant, 3xFLAG-His6 tagged; the entry holds the tag; also called monovalent form of A007901256
[16]
  IC50: 0.089 nM
[18]
  IC50: 0.048 nM
[17]
  IC50, cell-based cMet phosphorylation assay: 3.44 nM
  IC50, cell-based proliferation assay, plate 1: 1.88 nM

B15: A007901247 (VHH)
VHH: B10 VHH with A14P, E43K, S73D, A75S, N85S, K87R, E102G, R103L, L104I
notes: 33H10 variant, 3xFLAG-His6 tagged; the entry holds the tag
[16]
  IC50: 0.27 nM
[17]
  IC50, cell-based cMet phosphorylation assay: 12.8 nM

B16: A007901248 (VHH)
VHH: B10 VHH with A14P, T28A, E43K, S73D, A75S, N85S, K87R, E102G, R103L, L104I
notes: as for B15
[16]
  IC50: 0.17 nM
[17]
  IC50, cell-based cMet phosphorylation assay: 11.5 nM

B17: A007901249 (VHH)
VHH: B10 VHH with A14P, E46L, S73D, A75S, N85S, K87R, E102G, R103L, L104I
notes: 33H10 variant, 3xFLAG-His6 tagged; the entry holds the tag; also called monovalent form of A007901259
[16]
  IC50: 0.08 nM
[18]
  IC50: 0.043 nM
[17]
  IC50, cell-based cMet phosphorylation assay: 2.81 nM
  IC50, cell-based proliferation assay, plate 2: 1.93 nM

B18: A007901250 (VHH)
VHH: B10 VHH with A14P, T28A, E46L, S73D, A75S, N85S, K87R, E102G, R103L, L104I
notes: 33H10 variant, 3xFLAG-His6 tagged; the entry holds the tag; also called monovalent form of A007901260
[16]
  IC50: 0.081 nM
[18]
  IC50: 0.035 nM
[17]
  IC50, cell-based cMet phosphorylation assay: 2.34 nM
  IC50, cell-based proliferation assay, plate 1: 2.29 nM
  IC50, cell-based proliferation assay, plate 2: 1.32 nM

B19: A007901251 (VHH)
VHH: B10 VHH with A14P, E43K, E46L, S73D, A75S, N85S, K87R, E102G, R103L, L104I
notes: as for B15
[16]
  IC50: 0.068 nM
[17]
  IC50, cell-based cMet phosphorylation assay: 4.98 nM

B20: A007901252 (VHH)
VHH: EVQLVESGGGLVQPGGSLRLSCAASGFAFDDYAIGWFRQAPGKERLGVSSISSTYGLTYYADSVKGRFTISSDNSKNTVYLQMNSLRPEDTAVYYCAATPIGLIGLDAYEYDYWGQGTLVTVSS
notes: as for B15
[16]
  IC50: 0.12 nM
[17]
  IC50, cell-based cMet phosphorylation assay: 4.16 nM

B21: A007901253 (VHH)
VHH: B20 VHH with A28T, K43E, L46E, S63P
notes: as for B15
[16]
  IC50: 0.071 nM
[17]
  IC50, cell-based cMet phosphorylation assay: 4.84 nM

B22: A007900744 (VHH)
VHH: VQLVESGGGLVQPGGSLRLSCAASGFTFDDYAIGWFRQAPGEEREGVSSISSTYGLTYYADSVKGRFTISRSNSKNTVYLQMNSLKPEDTAVYYCAATPIERLGLDAYEYDYWGQGTLVTVSS
notes: as for B11
[15]
  IC50: 11 nM
